Source: the supplement of paper PMC11246515
± gives the standard deviation of the averaged measurements.

Assay: total protein half-life in vivo (active degradation + dilution); higher = more stable protein
[1] = E. coli NCM3722 delta-clpP delta-lon delta-hslV, growth: N-lim chemostat, doubling time 6 h
[2] = E. coli NCM3722 delta-clpP, growth: N-lim chemostat, doubling time 6 h
[3] = E. coli NCM3722 delta-hslV, growth: N-lim chemostat, doubling time 6 h
[4] = E. coli NCM3722 delta-smpB, growth: N-lim chemostat, doubling time 6 h
[5] = wild type E. coli NCM3722, growth: C-lim chemostat, doubling time 3 h
[6] = wild type E. coli NCM3722, growth: C-lim chemostat, doubling time 6 h
[7] = wild type E. coli NCM3722, growth: C-lim chemostat, doubling time 12 h
[8] = wild type E. coli NCM3722, growth: N-lim chemostat, doubling time 6 h
[9] = wild type E. coli NCM3722, growth: N-lim chemostat, doubling time 12 h
[10] = wild type E. coli NCM3722, growth: P-lim chemostat, doubling time 6 h
[11] = wild type E. coli NCM3722, growth: P-lim chemostat, doubling time 12 h
[12] = E. coli NCM3722 delta-lon, growth: N-lim chemostat, doubling time 6 h

Sequence	total protein half-life in vivo [1] [h]	total protein half-life in vivo [2] [h]	total protein half-life in vivo [3] [h]	total protein half-life in vivo [4] [h]	total protein half-life in vivo [5] [h]	total protein half-life in vivo [6] [h]	total protein half-life in vivo [7] [h]	total protein half-life in vivo [8] [h]	total protein half-life in vivo [9] [h]	total protein half-life in vivo [10] [h]	total protein half-life in vivo [11] [h]	total protein half-life in vivo [12] [h]
MFILWYSASSTFGKDSDIVMGVRAQQKEKTRRSLVEAAFSQLSAERSFASLSLREVAREAGIAPTSFYRHFRDVDELGLTMVDESGLMLRQLMRQARQRIAKGGSVIRTSVSTFMEFIGNNPNAFRLLLRERSGTSAAFRAAVAREIQHFIAELADYLELENHMPRAFTEAQAEAMVTIVFSAGAEALDVGVEQRRQLEERLVLQLRMISKGAYYWYRREQEKTAIIPGNVKDE [P0ACU5]	6.31 ± 0.35	5.81 ± 0.25	6.25 ± 0.1	5.957 ± 0.021	2.73 ± 0.18	5.97 ± 0.75	11.2 ± 2.1	5.71 ± 0.12	10.4 ± 1.6	5.31 ± 0.57	10.88 ± 0.052	–
MFKEIFTRLIRHLPSRLVHRDPLPGAQQTVNTVVPPSLSAHCLKMAVMPEEELWKTFDTHPEGLNQAEVESAREQHGENKLPAQQPSPWWVHLWVCYRNPFNILLTILGAISYATEDLFAAGVIALMVAISTLLNFIQEARSTKAADALKAMVSNTATVLRVINDKGENGWLEIPIDQLVPGDIIKLAAGDMIPADLRILQARDLFVAQASLTGESLPVEKAATTRQPEHSNPLECDTLCFMGTTVVSGTAQAMVIATGANTWFGQLAGRVSEQESEPNAFQQGISRVSMLLIRFMLVMAPVVLLINGYTKGDWWEAALFALSVAVGLTPEMLPMIVTSTLARGAVKLSKQKVIVKHLDAIQNFGAMDILCTDKTGTLTQDKIVLENHTDISGKTSERVLHSAWLNSHYQTGLKNLLDTAVLEGTDEESARSLASRWQKIDEIPFDFERRRMSVVVAENTEHHQLVCKGALQEILNVCSQVRHNGEIVPLDDIMLRKIKRVTDTLNRQGLRVVAVATKYLPAREGDYQRADESDLILEGYIAFLDPPKETTAPALKALKASGITVKILTGDSELVAAKVCHEVGLDAGEVVIGSDIETLSDDELANLAQRTTLFARLTPMHKERIVTLLKREGHVVGFMGDGINDAPALRAADIGISVDGAVDIAREAADIILLEKSLMVLEEGVIEGRRTFANMLKYIKMTASSNFGNVFSVLVASAFLPFLPMLPLHLLIQNLLYDVSQVAIPFDNVDDEQIQKPQRWNPADLGRFMIFFGPISSIFDILTFCLMWWVFHANTPETQTLFQSGWFVVGLLSQTLIVHMIRTRRVPFIQSCASWPLMIMTVIVMIVGIALPFSPLASYLQLQALPLSYFPWLVAILAGYMTLTQLVKGFYSRRYGWQ [P0ABB8]	6.31	6.68 ± 0.68	6.44 ± 0.53	5.89 ± 0.47	–	6.91 ± 0.4	14.8 ± 0.69	6.72 ± 0.55	14.4 ± 1.3	6.71 ± 0.3	–	–
MFKKSVLFATLLSGVMAFSTNADDKIILKHISVSSVSASPTVLEDTIADIARKYNASSWKVTSMRIDNNSTATAVLYK	–	–	5.17 ± 1.6	6.02 ± 0.31	–	3.54 ± 0.083	6.51 ± 5.1	3.93	9.35 ± 3.8	5.33	11.5	–
MFKNAFANLQKVGKSLMLPVSVLPIAGILLGVGSANFSWLPAVVSHVMAEAGGSVFANMPLIFAIGVALGFTNNDGVSALAAVVAYGIMVKTMAVVAPLVLHLPAEEIASKHLADTGVLGGIISGAIAAYMFNRFYRIKLPEYLGFFAGKRFVPIISGLAAIFTGVVLSFIWPPIGSAIQTFSQWAAYQNPVVAFGIYGFIERCLVPFGLHHIWNVPFQMQIGEYTNAAGQVFHGDIPRYMAGDPTAGKLSGGFLFKMYGLPAAAIAIWHSAKPENRAKVGGIMISAALTSFLTGITEPIEFSFMFVAPILYIIHAILAGLAFPICILLGMRDGTSFSHGLIDFIVLSGNSSKLWLFPIVGIGYAIVYYTIFRVLIKALDLKTPGREDATEDAKATGTSEMAPALVAAFGGKENITNLDACITRLRVSVADVSKVDQAGLKKLGAAGVVVAGSGVQAIFGTKSDNLKTEMDEYIRNH	6.96 ± 0.44	6.21 ± 0.099	6.68 ± 1.2	6.19 ± 0.17	3.54 ± 0.097	6.88 ± 0.64	13.4 ± 2.5	5.92 ± 0.44	11.8 ± 0.38	5.86 ± 0.2	11.7 ± 1.6	6.75 ± 0.38
MFKPHVTVACVVHAEGKFLVVEETINGKALWNQPAGHLEADETLVEAAARELWEETGISAQPQHFIRMHQWIAPDKTPFLRFLFAIELEQICPTQPHDSDIDCCRWVSAEEILQASNLRSPLVAESIRCYQSGQRYPLEMIGDFNWPFTKGVI [P0AEI6]	4.74 ± 0.38	4.42 ± 0.56	4.45	4.929 ± 0.049	–	5.3 ± 0.12	11.6 ± 1.9	4.54 ± 0.27	6.249 ± 0.042	5.49 ± 0.18	11.12 ± 0.055	4.69 ± 0.34
MFLAQEIIRKKRDGHALSDEEIRFFINGIRDNTISEGQIAALAMTIFFHDMTMPERVSLTMAMRDSGTVLDWKSLHLNGPIVDKHSTGGVGDVTSLMLGPMVAACGGYIPMISGRGLGHTGGTLDKLESIPGFDIFPDDNRFREIIKDVGVAIIGQTSSLAPADKRFYATRDITATVDSIPLITASILAKKLAEGLDALVMDVKVGSGAFMPTYELSEALAEAIVGVANGAGVRTTALLTDMNQVLASSAGNAVEVREAVQFLTGEYRNPRLFDVTMALCVEMLISGKLAKDDAEARAKLQAVLDNGKAAEVFGRMVAAQKGPTDFVENYAKYLPTAMLTKAVYADTEGFVSEMDTRALGMAVVAMGGGRRQASDTIDYSVGFTDMARLGDQVDGQRPLAVIHAKDENNWQEAAKAVKAAIKLADKAPESTPTVYRRISE	5.35 ± 0.43	5.92 ± 0.45	5.18 ± 0.25	5.29 ± 0.068	3.127 ± 0.0038	5.78 ± 0.25	–	5.36 ± 0.13	10.4 ± 1.3	6.07 ± 0.16	13.1 ± 1.6	5.58 ± 0.26
MFPEYRDLISRLKNENPRFMSLFDKHNKLDHEIARKEGSDGRGYNAEVVRMKKQKLQLKDEMLKILQQESVKEV [P0ACW6]	–	–	–	–	1.33	1.87 ± 0.1	1.75	–	–	–	–	–
